{"source": "the supplement of paper PMC11246515", "assay": "total protein half-life in vivo (active degradation + dilution); higher = more stable protein", "key": {"[1]": {"conditions": "E. coli NCM3722 delta-clpP delta-lon delta-hslV, growth: N-lim chemostat, doubling time 6 h"}, "[2]": {"conditions": "E. coli NCM3722 delta-hslV, growth: N-lim chemostat, doubling time 6 h"}, "[3]": {"conditions": "E. coli NCM3722 delta-smpB, growth: N-lim chemostat, doubling time 6 h"}, "[4]": {"conditions": "wild type E. coli NCM3722, growth: C-lim chemostat, doubling time 3 h"}, "[5]": {"conditions": "wild type E. coli NCM3722, growth: C-lim chemostat, doubling time 6 h"}, "[6]": {"conditions": "wild type E. coli NCM3722, growth: C-lim chemostat, doubling time 12 h"}, "[7]": {"conditions": "wild type E. coli NCM3722, growth: N-lim chemostat, doubling time 6 h"}, "[8]": {"conditions": "wild type E. coli NCM3722, growth: N-lim chemostat, doubling time 12 h"}, "[9]": {"conditions": "wild type E. coli NCM3722, growth: P-lim chemostat, doubling time 6 h"}, "[10]": {"conditions": "E. coli NCM3722 delta-clpP, growth: N-lim chemostat, doubling time 6 h"}, "[11]": {"conditions": "E. coli NCM3722 delta-lon, growth: N-lim chemostat, doubling time 6 h"}, "[12]": {"conditions": "wild type E. coli NCM3722, growth: P-lim chemostat, doubling time 12 h"}}, "note": "± gives the standard deviation of the averaged measurements."}
{"sequence": "MKYKHLILSLSLIMLGPLAHAEEIGSVDTVFKMIGPDHKIVVEAFDDPDVKNVTCYVSRAKTGGIKGGLGLAEDTSDAAISCQQVGPIELSDRIKNGKAQGEVVFKKRTSLVFKSLQVVRFYDAKRNALAYLAYSDKVVEGSPKNAISAVPVMPWRQ [P0AE91]", "values": [{"measurement": "total protein half-life in vivo", "setting": "[1]", "result": "5.76 ± 0.34", "unit": "h"}, {"measurement": "total protein half-life in vivo", "setting": "[2]", "result": "6.57 ± 0.31", "unit": "h"}, {"measurement": "total protein half-life in vivo", "setting": "[3]", "result": "6.01 ± 0.23", "unit": "h"}, {"measurement": "total protein half-life in vivo", "setting": "[4]", "result": "2.92 ± 0.29", "unit": "h"}, {"measurement": "total protein half-life in vivo", "setting": "[5]", "result": "5.9682 ± 0.0034", "unit": "h"}, {"measurement": "total protein half-life in vivo", "setting": "[6]", "result": "12.1 ± 2.7", "unit": "h"}, {"measurement": "total protein half-life in vivo", "setting": "[7]", "result": "6.39 ± 1.3", "unit": "h"}, {"measurement": "total protein half-life in vivo", "setting": "[8]", "result": "13.3 ± 0.76", "unit": "h"}, {"measurement": "total protein half-life in vivo", "setting": "[9]", "result": "6.41 ± 0.56", "unit": "h"}]}
{"sequence": "MKYQLTALEARVIGCLLEKQVTTPEQYPLSVNGVVTACNQKTNREPVMNLSESEVQEQLDNLVKRHYLRTVSGFGNRVTKYEQRFCNSEFGDLKLSAAEVALITTLLLRGAQTPGELRSRAARMYEFSDMAEVESTLEQLANREDGPFVVRLAREPGKRENRYMHLFSGEVEDQPAVTDMSNAVDGDLQARVEALEIEVAELKQRLDSLLAHLGD", "values": [{"measurement": "total protein half-life in vivo", "setting": "[10]", "result": "5.48 ± 0.32", "unit": "h"}, {"measurement": "total protein half-life in vivo", "setting": "[2]", "result": "6.03 ± 0.02", "unit": "h"}, {"measurement": "total protein half-life in vivo", "setting": "[11]", "result": "6.75 ± 0.25", "unit": "h"}, {"measurement": "total protein half-life in vivo", "setting": "[3]", "result": "5.16 ± 0.098", "unit": "h"}, {"measurement": "total protein half-life in vivo", "setting": "[4]", "result": "3.01 ± 0.35", "unit": "h"}, {"measurement": "total protein half-life in vivo", "setting": "[5]", "result": "6.003 ± 0.036", "unit": "h"}, {"measurement": "total protein half-life in vivo", "setting": "[6]", "result": "9.65 ± 0.61", "unit": "h"}, {"measurement": "total protein half-life in vivo", "setting": "[7]", "result": "4.69 ± 0.64", "unit": "h"}, {"measurement": "total protein half-life in vivo", "setting": "[8]", "result": "10.6 ± 0.71", "unit": "h"}, {"measurement": "total protein half-life in vivo", "setting": "[9]", "result": "5.38 ± 0.72", "unit": "h"}, {"measurement": "total protein half-life in vivo", "setting": "[12]", "result": "12.8 ± 1.3", "unit": "h"}]}
{"sequence": "MKYRIALAVSLFALSAGSYATTLCQEKEQNILKEISYAEKHQNQNRIDGLNKALSEVRANCSDSQLRADHQKKIAKQKDEVAERQQDLAEAKQKGDADKIAKRERKLAEAQEELKKLEARDY", "values": [{"measurement": "total protein half-life in vivo", "setting": "[1]", "result": "3.72 ± 0.12", "unit": "h"}, {"measurement": "total protein half-life in vivo", "setting": "[10]", "result": "3.7 ± 0.11", "unit": "h"}, {"measurement": "total protein half-life in vivo", "setting": "[11]", "result": "5.2 ± 0.22", "unit": "h"}, {"measurement": "total protein half-life in vivo", "setting": "[3]", "result": "4.66 ± 0.41", "unit": "h"}, {"measurement": "total protein half-life in vivo", "setting": "[5]", "result": 5.88, "unit": "h"}, {"measurement": "total protein half-life in vivo", "setting": "[6]", "result": "7.58 ± 0.055", "unit": "h"}, {"measurement": "total protein half-life in vivo", "setting": "[7]", "result": "5.07 ± 1.1", "unit": "h"}, {"measurement": "total protein half-life in vivo", "setting": "[8]", "result": "9.61 ± 1.1", "unit": "h"}, {"measurement": "total protein half-life in vivo", "setting": "[9]", "result": 4.12, "unit": "h"}, {"measurement": "total protein half-life in vivo", "setting": "[12]", "result": 10.6, "unit": "h"}]}
{"sequence": "MKYSLGPVLWYWPKETLEEFYQQAATSSADVIYLGEAVCSKRRATKVGDWLEMAKSLAGSGKQIVLSTLALVQASSELGELKRYVENGEFLIEASDLGVVNMCAERKLPFVAGHALNCYNAVTLKILLKQGMMRWCMPVELSRDWLVNLLNQCDELGIRNQFEVEVLSYGHLPLAYSARCFTARSEDRPKDECETCCIKYPNGRNVLSQENQQVFVLNGIQTMSGYVYNLGNELASMQGLVDVVRLSPQGTDTFAMLDAFRANENGAAPLPLTANSDCNGYWRRLAGLELQA", "values": [{"measurement": "total protein half-life in vivo", "setting": "[1]", "result": 3.35, "unit": "h"}]}
{"sequence": "MKYVFIEKHQAEFSIKAMCRVLRVARSGWYTWCQRRTRISTRQQFRQHCDSVVLAAFTRSKQRYGAPRLTDELRAQGYPFNVKTVAASLRRQGLRAKASRKFSPVSYRAHGLPVSENLLEQDFYASGPNQKWAGDITYLRTDEGWLYLAVVIDLWSRAVIGWSMSPRMTAQLACDALQMALWRRKRPRNVIVHTDRGGQYCSADYQAQLKRHNLRGSMSAKGCCYDNACVESFFHSLKVECIHGEHFISREIMRATVFNYIECDYNRWRRHSWCGGLSPEQFENKNLA [P0CF81]", "values": [{"measurement": "total protein half-life in vivo", "setting": "[1]", "result": "5.16 ± 0.69", "unit": "h"}]}
{"sequence": "MLAFIRFLFAGLLLVISHAFAATVQDEHGTFTLEKTPQRIVVLELSFADALAAVDVIPIGIADDNDAKRILPEVRAHLKPWQSVGTRAQPSLEAIAALKPDLIIADSSRHAGVYIALQQIAPVLLLKSRNETYAENLQSAAIIGEMVGKKREMQARLEQHKERMAQWASQLPKGTRVAFGTSREQQFNLHTQETWTGSVLASLGLNVPAAMAGASMPSIGLEQLLAVNPAWLLVAHYREESIVKRWQQDPLWQMLTAAQKQQVASVDSNTWARMRGIFAAERIAADTVKIFHHQPLTVVK", "values": [{"measurement": "total protein half-life in vivo", "setting": "[5]", "result": 5.67, "unit": "h"}, {"measurement": "total protein half-life in vivo", "setting": "[6]", "result": 7.06, "unit": "h"}]}
{"sequence": "MLAISSNLSKMIIFIFAIIIIVVLCVITYLYLYKDESLVSKHYINYMAIPENDGVFTWLPDFFPHVAVDISIYTNVEDDYFFLIFP", "values": [{"measurement": "total protein half-life in vivo", "setting": "[1]", "result": 3.41, "unit": "h"}, {"measurement": "total protein half-life in vivo", "setting": "[2]", "result": 5.43, "unit": "h"}]}
{"sequence": "MLCVKNVSLRLPESRLLTNVNFTVDKGDIVTLMGPSGCGKSTLFSWMIGALAEQFSCTGELWLNEQRIDILPTAQRQIGILFQDALLFDQFSVGQNLLLALPATLKGNARRNAVNDALERSGLEGAFHQDPATLSGGQRARVALLRALLAQPKALLLDEPFSRLDVALRDNFRQWVFSEVRALAIPVVQVTHDLQDVPADSSVLDMAQWSENYNKLR", "values": [{"measurement": "total protein half-life in vivo", "setting": "[1]", "result": "6.284 ± 0.01", "unit": "h"}, {"measurement": "total protein half-life in vivo", "setting": "[10]", "result": "5.73 ± 0.066", "unit": "h"}, {"measurement": "total protein half-life in vivo", "setting": "[2]", "result": "6.47 ± 0.07", "unit": "h"}, {"measurement": "total protein half-life in vivo", "setting": "[11]", "result": "6.28 ± 0.58", "unit": "h"}, {"measurement": "total protein half-life in vivo", "setting": "[3]", "result": "5.27 ± 0.077", "unit": "h"}, {"measurement": "total protein half-life in vivo", "setting": "[4]", "result": "3.11 ± 0.35", "unit": "h"}, {"measurement": "total protein half-life in vivo", "setting": "[5]", "result": "6.13 ± 0.53", "unit": "h"}, {"measurement": "total protein half-life in vivo", "setting": "[6]", "result": "10.8 ± 2.7", "unit": "h"}, {"measurement": "total protein half-life in vivo", "setting": "[7]", "result": "6.45 ± 0.98", "unit": "h"}, {"measurement": "total protein half-life in vivo", "setting": "[8]", "result": "12.7 ± 0.24", "unit": "h"}, {"measurement": "total protein half-life in vivo", "setting": "[9]", "result": "5.99 ± 0.28", "unit": "h"}, {"measurement": "total protein half-life in vivo", "setting": "[12]", "result": "13.7 ± 0.89", "unit": "h"}]}
{"sequence": "MLDANKLQQAVDQAYTQFHSLNGGQNADYIPFLANVPGQLAAVAIVTCDGNVYSAGDSDYRFALESISKVCTLALALEDVGPQAVQDKIGADPTGLPFNSVIALELHGGKPLSPLVNAGAIATTSLINAENVEQRWQRILHIQQQLAGEQVALSDEVNQSEQTTNFHNRAIAWLLYSAGYLYCDAMEACDVYTRQCSTLLNTIELATLGATLAAGGVNPLTHKRVLQADNVPYILAEMMMEGLYGRSGDWAYRVGLPGKSGVGGGILAVVPGVMGIAAFSPPLDEDGNSVRGQKMVASVAKQLGYNVFKG", "values": [{"measurement": "total protein half-life in vivo", "setting": "[1]", "result": "5.46 ± 0.86", "unit": "h"}, {"measurement": "total protein half-life in vivo", "setting": "[10]", "result": "5.64 ± 1.6", "unit": "h"}, {"measurement": "total protein half-life in vivo", "setting": "[2]", "result": "4.65 ± 0.16", "unit": "h"}, {"measurement": "total protein half-life in vivo", "setting": "[11]", "result": "4.81 ± 0.26", "unit": "h"}, {"measurement": "total protein half-life in vivo", "setting": "[3]", "result": "4.57 ± 0.085", "unit": "h"}, {"measurement": "total protein half-life in vivo", "setting": "[5]", "result": "> 8", "unit": "h"}, {"measurement": "total protein half-life in vivo", "setting": "[6]", "result": 10.1, "unit": "h"}, {"measurement": "total protein half-life in vivo", "setting": "[7]", "result": "4.75 ± 0.39", "unit": "h"}, {"measurement": "total protein half-life in vivo", "setting": "[8]", "result": "7.14 ± 2.3", "unit": "h"}, {"measurement": "total protein half-life in vivo", "setting": "[9]", "result": "6.4 ± 0.21", "unit": "h"}, {"measurement": "total protein half-life in vivo", "setting": "[12]", "result": "12.4 ± 0.65", "unit": "h"}]}
